Data from US20210388087A1 (Chugai, published 2021).
Where a chain is given by its changes, count along the chain named.

B1: CE115HA000/GLS3000 G89E (antibody, IgG1, name in Kabat numbering, V domains shown)
VH: QVQLVESGGGVVQPGRSLRLSCAASGFTFSNAWMHWVRQAPGKGLEWVAQIKAKSNNYATYYAESVKGRFTISRDDSKNSLYLQMNSLKTEDTAVYYCRYVHYGAYYGVDAWGQGTTVTVSS
VL: DIVMTQSPLSLPVTPGEPASISCRSSQSLVHSNRNTYLHWYQQKPGQAPRLLIYKVSNRFSGVPDRFSGSGSGTDFTLKISRVEAEDVGVYYCEQGTQVPYTFGQGTKLEIK
notes: one-arm IgG1
B2: CE115HA000/GLS3000 H27dM (antibody, IgG1, name in Kabat numbering, V domains shown)
VH: B1 VH
VL: B1 VL with H31M, E94G
notes: one-arm IgG1
B3: CE115HA000/GLS3000 H34G (antibody, IgG1, name in Kabat numbering, V domains shown)
VH: B1 VH
VL: B1 VL with H39G, E94G
notes: one-arm IgG1
B4: CE115HA000/GLS3000 H27dR (antibody, IgG1, name in Kabat numbering, V domains shown)
VH: B1 VH
VL: B1 VL with H31R, E94G
notes: one-arm IgG1
B5: CE115HA000/GLS3000 H27dW (antibody, IgG1, name in Kabat numbering, V domains shown)
VH: B1 VH
VL: B1 VL with H31W, E94G
notes: one-arm IgG1
B6: CE115HA000/GLS3000 G89L (antibody, IgG1, name in Kabat numbering, V domains shown)
VH: B1 VH
VL: B1 VL with E94L
notes: one-arm IgG1
B7: CE115HA000/GLS3000 H27dA (antibody, IgG1, name in Kabat numbering, V domains shown)
VH: B1 VH
VL: B1 VL with H31A, E94G
notes: one-arm IgG1
B8: CE115HA000/GLS3000 H34M (antibody, IgG1, name in Kabat numbering, V domains shown)
VH: B1 VH
VL: B1 VL with H39M, E94G
notes: one-arm IgG1
B9: CE115HA000/GLS3000 G89F (antibody, IgG1, name in Kabat numbering, V domains shown)
VH: B1 VH
VL: B1 VL with E94F
notes: one-arm IgG1
B10: CE115HA000/GLS3000 H27dS (antibody, IgG1, name in Kabat numbering, V domains shown)
VH: B1 VH
VL: B1 VL with H31S, E94G
notes: one-arm IgG1
B11: CE115HA000/GLS3000 H27dK (antibody, IgG1, name in Kabat numbering, V domains shown)
VH: B1 VH
VL: B1 VL with H31K, E94G
notes: one-arm IgG1
B12: CE115HA000/GLS3000 H34A (antibody, IgG1, name in Kabat numbering, V domains shown)
VH: B1 VH
VL: B1 VL with H39A, E94G
notes: one-arm IgG1
B13: CE115HA000/GLS3000 H34E (antibody, IgG1, name in Kabat numbering, V domains shown)
VH: B1 VH
VL: B1 VL with H39E, E94G
notes: one-arm IgG1
B14: CE115HA000/GLS3000 H27dF (antibody, IgG1, name in Kabat numbering, V domains shown)
VH: B1 VH
VL: B1 VL with H31F, E94G
notes: one-arm IgG1
B15: CE115HA000/GLS3000 H34D (antibody, IgG1, name in Kabat numbering, V domains shown)
VH: B1 VH
VL: B1 VL with H39D, E94G
notes: one-arm IgG1
B16: CE115HA000/GLS3000 G89H (antibody, IgG1, name in Kabat numbering, V domains shown)
VH: B1 VH
VL: B1 VL with E94H
notes: one-arm IgG1
B17: CE115HA000/GLS3000 H27dG (antibody, IgG1, name in Kabat numbering, V domains shown)
VH: B1 VH
VL: B1 VL with H31G, E94G
notes: one-arm IgG1
B18: CE115HA000/GLS3000 G89W (antibody, IgG1, name in Kabat numbering, V domains shown)
VH: B1 VH
VL: B1 VL with E94W
notes: one-arm IgG1
B19: CE115HA000/GLS3000 H27dP (antibody, IgG1, name in Kabat numbering, V domains shown)
VH: B1 VH
VL: B1 VL with H31P, E94G
notes: one-arm IgG1
B20: CE115HA000/GLS3000 G89K (antibody, IgG1, name in Kabat numbering, V domains shown)
VH: B1 VH
VL: B1 VL with E94K
notes: one-arm IgG1
B21: CE115HA000/GLS3000 G91D (antibody, IgG1, name in Kabat numbering, V domains shown)
VH: B1 VH
VL: B1 VL with E94G, G96D
notes: one-arm IgG1
B22: CE115HA000/GLS3000 H27dE (antibody, IgG1, name in Kabat numbering, V domains shown)
VH: B1 VH
VL: B1 VL with H31E, E94G
notes: one-arm IgG1
B23: CE115HA000/GLS3000 H27dV (antibody, IgG1, name in Kabat numbering, V domains shown)
VH: B1 VH
VL: B1 VL with H31V, E94G
notes: one-arm IgG1
B24: CE115HA000/GLS3000 G89I (antibody, IgG1, name in Kabat numbering, V domains shown)
VH: B1 VH
VL: B1 VL with E94I
notes: one-arm IgG1
B25: CE115HA000/GLS3000 G91P (antibody, IgG1, name in Kabat numbering, V domains shown)
VH: B1 VH
VL: B1 VL with E94G, G96P
notes: one-arm IgG1
B26: CE115HA000/GLS3000 G91A (antibody, IgG1, name in Kabat numbering, V domains shown)
VH: B1 VH
VL: B1 VL with E94G, G96A
notes: one-arm IgG1
B27: CE115HA000/GLS3000 G89R (antibody, IgG1, name in Kabat numbering, V domains shown)
VH: B1 VH
VL: B1 VL with E94R
notes: one-arm IgG1
B28: CE115HA000/GLS3000 H34I (antibody, IgG1, name in Kabat numbering, V domains shown)
VH: B1 VH
VL: B1 VL with H39I, E94G
notes: one-arm IgG1
B29: CE115HA000/GLS3000 G89M (antibody, IgG1, name in Kabat numbering, V domains shown)
VH: B1 VH
VL: B1 VL with E94M
notes: one-arm IgG1
B30: CE115HA000/GLS3000 G89P (antibody, IgG1, name in Kabat numbering, V domains shown)
VH: B1 VH
VL: B1 VL with E94P
notes: one-arm IgG1
B31: CE115HA000/GLS3000 H27dL (antibody, IgG1, name in Kabat numbering, V domains shown)
VH: B1 VH
VL: B1 VL with H31L, E94G
notes: one-arm IgG1
B32: CE115HA000/GLS3000 H27dQ (antibody, IgG1, name in Kabat numbering, V domains shown)
VH: B1 VH
VL: B1 VL with H31Q, E94G
notes: one-arm IgG1
B33: CE115HA000/GLS3000 G91E (antibody, IgG1, name in Kabat numbering, V domains shown)
VH: B1 VH
VL: B1 VL with E94G, G96E
notes: one-arm IgG1
B34: CE115HA000/GLS3000 H34K (antibody, IgG1, name in Kabat numbering, V domains shown)
VH: B1 VH
VL: B1 VL with H39K, E94G
notes: one-arm IgG1
B35: CE115HA000/GLS3000 G91T (antibody, IgG1, name in Kabat numbering, V domains shown)
VH: B1 VH
VL: B1 VL with E94G, G96T
notes: one-arm IgG1
B36: CE115HA000/GLS3000 G89N (antibody, IgG1, name in Kabat numbering, V domains shown)
VH: B1 VH
VL: B1 VL with E94N
notes: one-arm IgG1
B37: CE115HA000/GLS3000 H27dT (antibody, IgG1, name in Kabat numbering, V domains shown)
VH: B1 VH
VL: B1 VL with H31T, E94G
notes: one-arm IgG1
B38: CE115HA000/GLS3000 G89V (antibody, IgG1, name in Kabat numbering, V domains shown)
VH: B1 VH
VL: B1 VL with E94V
notes: one-arm IgG1
B39: CE115HA000/GLS3000 H27dI (antibody, IgG1, name in Kabat numbering, V domains shown)
VH: B1 VH
VL: B1 VL with H31I, E94G
notes: one-arm IgG1
B40: CE115HA000/GLS3000 G89Y (antibody, IgG1, name in Kabat numbering, V domains shown)
VH: B1 VH
VL: B1 VL with E94Y
notes: one-arm IgG1
B41: CE115HA000/GLS3000 G91Y (antibody, IgG1, name in Kabat numbering, V domains shown)
VH: B1 VH
VL: B1 VL with E94G, G96Y
notes: one-arm IgG1
B42: CE115HA000/GLS3000 H34L (antibody, IgG1, name in Kabat numbering, V domains shown)
VH: B1 VH
VL: B1 VL with H39L, E94G
notes: one-arm IgG1
B43: CE115HA000/GLS3000 H27dY (antibody, IgG1, name in Kabat numbering, V domains shown)
VH: B1 VH
VL: B1 VL with H31Y, E94G
notes: one-arm IgG1
B44: CE115HA000/GLS3000 G89Q (antibody, IgG1, name in Kabat numbering, V domains shown)
VH: B1 VH
VL: B1 VL with E94Q
notes: one-arm IgG1
B45: CE115HA000/GLS3000 H27dN (antibody, IgG1, name in Kabat numbering, V domains shown)
VH: B1 VH
VL: B1 VL with H31N, E94G
notes: one-arm IgG1
B46: CE115HA000/GLS3000 G89T (antibody, IgG1, name in Kabat numbering, V domains shown)
VH: B1 VH
VL: B1 VL with E94T
notes: one-arm IgG1
B47: CE115HA000/GLS3000 H34F (antibody, IgG1, name in Kabat numbering, V domains shown)
VH: B1 VH
VL: B1 VL with H39F, E94G
notes: one-arm IgG1

What follows are binders tested against T1, CD3 epsilon homodimer protein (UniProt P07766 23-126) (assay: SPR, antibody over immobilised CD3e homodimer;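 further: SPR at 25 °C with CD3 epsilon homodimer amine-coupled to a CM4 sensor chip and antibody flowed over as analyte in HBS-EP+ running buffer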).
T1 construct: also called CD3 (CD3 epsilon)
T1 sequence (P07766 23-126): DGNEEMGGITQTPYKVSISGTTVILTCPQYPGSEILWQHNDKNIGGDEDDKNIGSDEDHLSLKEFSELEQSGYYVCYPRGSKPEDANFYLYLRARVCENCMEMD

KD ratio to GLS3000	Binder
34.6	B1
3.43	B2
1.08	B3
2.35	B4
1.86	B5
2.38	B6
2.57	B7
3.16	B8
3.34	B9
3.05	B10
3.8	B11
1.18	B12
8.03	B13
2.05	B14
2100	B15
1.44	B16
3.51	B17
2.2	B18
9.21	B19
1.8	B20
44.8	B21
42.3	B22
354	B23
1.11	B24

KD ratio to GLS3000	Binder
23.1	B25
28.1	B26
4130	B27
0.89	B28
1.96	B29
1.8	B30
3.37	B31
7.48	B32
48.5	B33
4.1	B34
39.9	B35
1.2	B36
13000	B37
1.4	B38
7.77	B39
1.12	B40
33.8	B41
1.03	B42
1.98	B43
2.11	B44
3.43	B45
1.1	B46
3.5	B47
